Experimental data as given in patent US20050002930A1.

Target: α5β1 integrin on CD14+ blood monocytes of the dosed animals
Assay: FACS occupancy on blood monocytes compared with serum levels of M200

B1: M200 chimeric (mouse/human IgG4) anti-α5β1 integrin antibody (antibody, V domains shown)
VH: QVQLKESGPGLVAPSQSLSITCTISGFSLTDYGVHWVRQPPGKGLEWLVVIWSDGSSTYNSALKSRMTIRKDNSKSQVFLIMNSLQTDDSAMYYCARHGTYYGMTTTGDALDYWGQGTSVTVSS
VL: QIVLTQSPAIMSASLGERVTMTCTASSSVSSNYLHWYQQKPGSAPNLWIYSTSNLASGVPARFSGSGSGTSYSLTISSMEAEDAATYYCHQYLRSPPTFGGGTKLEIKR
A serum concentration sufficient to completely saturate monocyte α5β1 integrin binding sites of 60 µg/mL was found for B1 in this work.
